Square brackets hold non-standard residues; d marks the D form. Ends that are not written are not given here.
B1: SEQ ID NO: 185 (peptide)
chain: [dR]KKR[dR]QRR[dR]RP[dK]RP[dS]TLNL[dF]
B2: SEQ ID NO: 46 (peptide)
chain: RKKRRQRRR
B3: SEQ ID NO: 200 (peptide)
chain: [dR]KKR[dR]QRR[dR]RP[dK]AA[dA]AANA[dF]
B4: SEQ ID NO: 180 (peptide)
chain: [dR]KKR[dR]QRR[dR]RPTDL[dR]L[dW]
B5: SEQ ID NO: 195 (peptide)
chain: GRKKRRQRRRPTTLNLFPQVPRSQD
B6: SEQ ID NO: 194 (peptide)
chain: GRKKRRQRRRPPKRPTTLNLFPQVPRSQD
B7: SEQ ID NO: 173 (peptide)
chain: [dR]KKR[dR]QRR[dR]RP[dK]RPTTL[dR]L[dF]
B8: SEQ ID NO: 182 (peptide)
chain: [dR]KKR[dR]QRR[dR]RP[dA]TLNL[dF]
B9: SEQ ID NO: 172 (peptide)
chain: RKKRRQRRRRPKRPATLNLF
B10: SEQ ID NO: 186 (peptide)
chain: [dR]KKR[dR]QRR[dR]RP[dK]RP[dQ]TLNL[dF]
B11: SEQ ID NO: 184 (peptide)
chain: [dR]KKR[dR]QR[dR]KRP[dA]TLNL[dF]
B12: SEQ ID NO: 189 (peptide)
chain: [dR]KKR[dR]QRR[dR]GKRKAL[dR]L[dF]
B13: SEQ ID NO: 179 (peptide)
chain: [dR]KKR[dR]QR[dR]RPTTL[dR]L[dW]
B14: SEQ ID NO: 183 (peptide)
chain: [dR]KKR[dR]QR[dR]RP[dA]TLNL[dF]
B15: SEQ ID NO: 176 (peptide)
chain: [dR]KKR[dR]QRR[dR]RP[dK]RPTTLNL[dW]
B16: SEQ ID NO: 181 (peptide)
chain: [dR]KKR[dR]QR[dR]RPTDL[dR]L[dW]
B17: SEQ ID NO: 190 (peptide)
chain: [dR]KKR[dR]QRR[dR]RKAL[dR]L[dF]
B18: SEQ ID NO: 187 (peptide)
chain: [dR]KKR[dR]QRR[dR]RP[dK]RP[dK]TLNL[dF]
B19: SEQ ID NO: 177 (peptide)
chain: [dR]KKR[dR]QRR[dR]RP[dK]RPTDLNL[dF]
B20: SEQ ID NO: 188 (peptide)
chain: [dR]KKR[dR]QRR[dR]GKRKALKL[dF]
B21: SEQ ID NO: 175 (peptide)
chain: [dR]KKR[dR]QR[dR]RPTTLNL[dF]
B22: SEQ ID NO: 178 (peptide)
chain: [dR]KKR[dR]QRR[dR]RPTTL[dR]L[dW]
B23: SEQ ID NO: 174 (peptide)
chain: [dR]KKR[dR]QRR[dR]RPTTLNL[dF]
B24: SEQ ID NO: 6 (peptide)
chain: RPKRPTTL[dR]LF

Tests used:
[1] = target: T1, His-JNK1 (ref 14-327, Upstate) (UniProt P45983 1-384); assay: kinase inhibition
[2] = target: T2, His-JNK3 (ref 14-501, Upstate) (UniProt P53779 1-422); assay: kinase inhibition
[3] = target: T1, His-JNK1 (ref 14-327, Upstate); assay: JNK inhibition assay
[4] = target: T2, His-JNK3 (ref 14-501, Upstate); assay: JNK inhibition assay

T1 sequence (P45983 other isoform, or with tags, fused parts or gaps): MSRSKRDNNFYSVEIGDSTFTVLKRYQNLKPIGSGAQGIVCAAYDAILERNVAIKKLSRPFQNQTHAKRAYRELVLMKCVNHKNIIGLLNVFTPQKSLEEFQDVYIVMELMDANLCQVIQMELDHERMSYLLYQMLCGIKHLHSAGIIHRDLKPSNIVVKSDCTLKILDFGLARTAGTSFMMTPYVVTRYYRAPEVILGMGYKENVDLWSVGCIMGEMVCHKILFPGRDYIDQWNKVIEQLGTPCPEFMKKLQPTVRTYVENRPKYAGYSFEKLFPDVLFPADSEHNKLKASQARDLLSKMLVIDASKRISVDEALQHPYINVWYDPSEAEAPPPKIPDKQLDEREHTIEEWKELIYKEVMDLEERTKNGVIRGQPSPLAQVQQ
T2 sequence (P53779 other isoform, or with tags, fused parts or gaps): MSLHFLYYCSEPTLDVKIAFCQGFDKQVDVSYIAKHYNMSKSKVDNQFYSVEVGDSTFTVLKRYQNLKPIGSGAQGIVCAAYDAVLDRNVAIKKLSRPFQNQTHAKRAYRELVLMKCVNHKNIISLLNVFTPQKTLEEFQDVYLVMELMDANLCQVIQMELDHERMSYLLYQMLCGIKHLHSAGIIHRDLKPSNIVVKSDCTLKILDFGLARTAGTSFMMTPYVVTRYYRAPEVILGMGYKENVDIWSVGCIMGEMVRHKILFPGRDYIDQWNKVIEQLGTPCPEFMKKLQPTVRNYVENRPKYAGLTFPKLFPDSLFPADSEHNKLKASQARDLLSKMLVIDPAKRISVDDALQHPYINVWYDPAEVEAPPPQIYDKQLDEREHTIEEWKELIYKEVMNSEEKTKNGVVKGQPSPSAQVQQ

| Binder | IC50 [1] [nM] | IC50 [2] [nM] | IC50 [3] [nM] | IC50 [4] [nM] |
| --- | --- | --- | --- | --- |
| B1 | 766 | 35.5 | – | – |
| B2 | – | 8130 | – | – |
| B3 | – | 3820 | – | – |
| B4 | 265 | 47 | – | – |
| B5 | 10.8 | 4.92 | – | – |
| B6 | 14 | 2.59 | – | – |
| B7 | 88.4 | 16.8 | – | – |
| B8 | 1680 | 59.4 | – | – |
| B9 | 722 | 102 | – | – |
| B10 | 1020 | 44.2 | – | – |
| B11 | 2430 | 129 | – | – |
| B12 | 22300 | 128 | – | – |
| B13 | 249 | 45.7 | – | – |
| B14 | 2590 | 199 | – | – |
| B15 | 131 | 22.4 | – | – |
| B16 | 294 | 47.6 | – | – |
| B17 | 8970 | 159 | – | – |
| B18 | 594 | 25.4 | – | – |
| B19 | 355 | 45.4 | – | – |
| B20 | 1420 | 36.1 | – | – |
| B21 | 185 | 60.6 | – | – |
| B22 | 329 | 30.4 | – | – |
| B23 | 334 | 63.1 | – | – |
| B24 | – | – | 90.5 | 120 |

Reference: US20160115200A1 (published 2016)
